Molecular target: T1, M2AchR (Rattus norvegicus, UniProt P10980)
T1 construct: expressed in transfected cells; host or cells: HEK-293 (chimera stably or transiently expressed; M2AchR transiently transfected)
T1 sequence (P10980 1-466): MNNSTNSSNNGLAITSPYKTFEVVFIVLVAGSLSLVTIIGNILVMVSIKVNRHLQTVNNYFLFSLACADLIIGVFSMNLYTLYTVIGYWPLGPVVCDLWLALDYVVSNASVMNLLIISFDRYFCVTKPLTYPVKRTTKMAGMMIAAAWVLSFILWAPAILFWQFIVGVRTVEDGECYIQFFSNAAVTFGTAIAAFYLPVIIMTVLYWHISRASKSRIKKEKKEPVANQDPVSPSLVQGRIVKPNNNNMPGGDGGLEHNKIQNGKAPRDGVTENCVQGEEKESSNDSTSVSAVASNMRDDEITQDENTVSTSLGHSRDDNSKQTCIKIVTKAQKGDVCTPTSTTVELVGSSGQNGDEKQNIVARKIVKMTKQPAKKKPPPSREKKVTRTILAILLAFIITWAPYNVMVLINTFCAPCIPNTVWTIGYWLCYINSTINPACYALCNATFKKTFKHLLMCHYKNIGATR
Assay: CRE-SEAP reporter gene assay, stably versus transiently expressed chimeric G proteins
Assay type: cell-based
Conditions: cells transiently expressing the chimera construct, 10 uM acetylcholine
Experimental: The ligand-induced SEAP activity for cells stably transfected and expressing Gαs-based chimeric G proteins was compared with that of cells transiently expressing Gαs-based chimeric G proteins. Stable expression is achieved by integration of the construct of interest into the target cell's chromosome. Cell lines were prepared that stably expressed Gαs-Gαt-13, Gαs-Gαi-13, and Gαs-Gαo-13 G protein chimeras. […] Therefore, cell lines stably expressing the Gαs-based chimeric G proteins can provide enhanced sensitivity for the screening and identification of GPCR ligands.
Preparation of cells stably expressing G protein chimeras: HEK-293 cells were transfected with each of the G protein chimeras of interest. Following transfection, the cells were split and diluted in media containing 0.7 mg/ml neomycin (Gibco). Cells were grown until clones could be picked. At least 25 clones from each of the stables were picked, and tested for their suitability as sensor cell lines, by transfecting them with CRE-SEAP and cDNA encoding the M2AchR receptor. Those stables that elicited the maximal signal to noise following activation of the GPCRs were chosen and maintained. […]
Following transfection, the cells were maintained for 48 hours in 200 ul serum free media containing 10 uM acetylcholine (Sigma). […] Fluorescence was then measured using a CytoFluor 4000 multi well plate reader (Applied Biosystems).

B1: Gαs-Gαt-13: Gαs-based chimeric G protein, final 13 C-terminal amino acids substituted with those of Gαt (protein)
chain: MGCLGNSKTEDQRNEEKAQREANKKIEKQLQKDKQVYRATHRLLLLGAGESGKSTIVKQMRILHVNGFNGEGGEEDVPDYASNSDGEKATKVQDIKNNLKEAIETIVAAMSNLVPPVELANPENQFRVDYILSVMNVPNFDFPPEFYEHAKALWEDEGVRACYERSNEYQLIDCAQYFLDKIDVIKQADYVPSDQDLLRCRVLTSGIFETKFQVDKVNFHMFDVGGQRDERRKWIQCFNDVTAIIFVVASSSYNMVIREDNQTNRLQEALNLFKSIWNNRWLRTISVILFLNKQDLLAEKVLAGKSKIEDYFPEFARYTTPEDATPEPGEDPRVTRAKYFIRDEFLRISTASGDGRHYCYPHFTCAVDTENIRRVFNDCRDIIIKENLKDCGLF
modifications: Chimeric protein
notes: Gαs-based chimeric G protein, final 13 C-terminal amino acids substituted with those of Gαt
  increase in SEAP activity: approximately 10 fold
